In PMC3892060:

Legend:
[1] = target: AP2μ-eCFP fusion (UniProt Q96CW1); experiment: FACS-based FRET assay; conditions: 293T cells cotransfected with Nef-YFP and AP2µ-CFP, measured 24 hours later
[2] = target: AP2μ-eCFP fusion (human (HeLa cDNA library)) (UniProt Q96CW1); experiment: FRET or BRET; FACS-based FRET; 293 T cells cotransfected with Nef-YFP fusion vectors and AP2μ-CFP; 24 hours later the amount of cells scoring FRET+ measured by flow cytometry
[3] = mean and SD of four to nine independent transfections, parent: est. 62, read off a plot

Substance | response (% FRET+ cells) [1, 3] | percent of FRET+ cells (mean) [2] [%] | response (% FRET+ cells) ([1]; representative single FACS plot (upper row of panel A), parent: 69.8)
SIVmac 239 Nef-YFP G2A | 3 |  | 
SIVsm FFm1 Nef-YFP (natural protein) |  | < 35 | 
SIVmac 239 Nef-YFP Y28F | 32 |  | 38.1
HIV-2 Ben Nef-YFP (natural protein) |  | < 35 | 
SIVmac 239 Nef-YFP Y28A | 26 |  | 
